Test results as given in paper PMC11699347, “Heme regulates protein interactions and phosphorylation of BACH2 intrinsically disordered region in humoral response” (iScience, 2024).

T1: His-FLAG-TBK1 (mouse, UniProt Q9WUN2 1-729)
T1 construct: An HRV 3C protease site follows the N-terminal FLAG-8xHis tag; also called FLAG-His-TBK1; recombinant mouse His-FLAG-TBK1; source: Sf9 insect cells (baculovirus), purified (FLAG-M2 agarose, G-25 spin column); not shown: FLAG, N-terminal, kept; 8xHis, N-terminal, kept
T1 sequence (looked up): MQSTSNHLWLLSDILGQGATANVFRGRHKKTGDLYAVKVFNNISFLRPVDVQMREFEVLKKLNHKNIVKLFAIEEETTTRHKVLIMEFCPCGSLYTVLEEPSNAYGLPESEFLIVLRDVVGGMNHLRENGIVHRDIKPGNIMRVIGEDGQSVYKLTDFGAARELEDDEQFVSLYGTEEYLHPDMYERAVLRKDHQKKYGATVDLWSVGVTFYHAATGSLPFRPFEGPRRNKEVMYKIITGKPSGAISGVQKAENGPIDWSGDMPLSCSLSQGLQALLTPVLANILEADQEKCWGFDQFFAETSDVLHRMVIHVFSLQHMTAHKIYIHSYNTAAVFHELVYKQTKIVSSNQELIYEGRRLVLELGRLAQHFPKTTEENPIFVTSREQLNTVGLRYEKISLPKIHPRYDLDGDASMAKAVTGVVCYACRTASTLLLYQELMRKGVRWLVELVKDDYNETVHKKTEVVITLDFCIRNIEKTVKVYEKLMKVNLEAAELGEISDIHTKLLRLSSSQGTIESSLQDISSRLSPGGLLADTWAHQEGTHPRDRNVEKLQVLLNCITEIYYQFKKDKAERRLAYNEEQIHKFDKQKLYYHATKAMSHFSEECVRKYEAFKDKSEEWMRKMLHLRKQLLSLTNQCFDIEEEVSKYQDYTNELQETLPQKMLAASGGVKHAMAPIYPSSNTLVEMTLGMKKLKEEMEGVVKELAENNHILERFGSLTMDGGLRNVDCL

B1: GST-BACH2-381-481 (domain or fragment, mouse, UniProt P97303 381-481, looked up)
chain: KTDYTPLAGNYGQPHVGQKDVSNFAMGSPLRGPGPETLCKQEGELDRRSVIFSASACDQPNTPVHSYSAVSNLDKDLSEPVPKSLWVGAGQSLPSSQAYSH
notes: made by PCR from pGEX6P1-BACH2-IDR; Cloned into pGEX-6P-1; source: E. coli KRX, purified (Glutathione Sepharose 4B)
B2: Slc48a1-MARE (dsDNA)
DNA 1: GCACTCCACTTCTGACTCAGCATTTTGCAGCC
DNA 2: GGCTGCAAAATGCTGAGTCAGAAGTGGAGTGC
B3: GST-BACH2-IDR (domain or fragment, mouse, UniProt P97303 331-520, looked up)
chain: SRSVSSPSCLRSLFGITKGVESTGLPSTSQQPLVRSSACPFNKGISQGDLKTDYTPLAGNYGQPHVGQKDVSNFAMGSPLRGPGPETLCKQEGELDRRSVIFSASACDQPNTPVHSYSAVSNLDKDLSEPVPKSLWVGAGQSLPSSQAYSHSGLMADHLPGRIRPNTSCPVPIKVCPRSPPLETRTRTSS
notes: BACH2, mouse, intrinsically disordered region, amino acid region 331-520; Plasmid pGEX6P1-BACH2-IDR; also called recombinant BACH2-331-520 with GST kept; source: E. coli KRX, purified (Glutathione Sepharose 4B)

Experiments:
His-FLAG-TBK1 = target: T1, His-FLAG-TBK1; experiment: pull-down; GST fusion on Glutathione Sepharose beads with purified His-FLAG-TBK1 or His-FLAG-DNMT1, with or without heme, 2 h at 4°C; 20 mM HEPES pH 7.0, 50 mM NaCl, 2 mM TCEP; immunoblot; details: both partners purified
GST-BACH2_331-839 = GST-BACH2_331-839 (UniProt P97303 331-839); experiment: EMSA; MafK presence not stated in the material; 32P-labeled ds probes, 30 min incubation, 4% polyacrylamide gel; buffer, salt, pH and temperature not stated; details: protein: recombinant; tags: N-terminal GST; label: 32P 5' end (PNK)

| Binder | binding result (His-FLAG-TBK1) | binding result (GST-BACH2_331-839) |
| --- | --- | --- |
| B1 | binds | – |
| B2 | – | binds |
| B3 | binds | – |
